B1: DCN1-like protein 3 (Homo sapiens), Q8IWE4 (parent)
chain: MGQCVTKCKNPSSTLGSKNGDREPSNKSHSRRGAGHREEQVPPCGKPGGDILVNGTKKAEAATEACQLPTSSGDAGRESKSNAEESSLQRLEELFRRYKDEREDAILEEGMERFCNDLCVDPTEFRVLLLAWKFQAATMCKFTRKEFFDGCKAISADSIDGICARFPSLLTEAKQEDKFKDLYRFTFQFGLDSEEGQRSLHREIAIALWKLVFTQNNPPVLDQWLNFLTENPSGIKGISRDTWNMFLNFTQVIGPDLSNYSEDEAWPSLFDTFVEWEMERRKREGEGRGALSSGPEGLCPEEQT

Variants of: B1
Settings: with cul3_human CUL3, Q13618

| effect of a mutation on the interaction | Variant |
| --- | --- |
| disrupting interaction strength | MGQCVTKCKNPSSTLGSKNGDREPSNKSHSRRGAGHREEQVPPCGKPGGDILVNGTKKAEAATEACQLPTSSGDAGRESKSNAEESSLQRLEELFRRYKDEREDAILEEGMERFCNDLCVDPTEFRVLLLAWKFQAATMCKFTRKEFFDGCKAISADSIDGICARFPSLLTEAKQEDKFKDLYRFTFQFGLDSEEGQRSLHREIAIALWKLVFTQNNPPVLDQWLNFLTENPSGIKGISRATWNMFLNFTQVIGPDLSNYSEDERWPSLFATFVEWEMERRKREGEGRGALSSGPEGLCPEEQT [D241A;A265R;D271A] |

From IntAct's records for PubMed 19617556
